Results: patent US20180155451A1 (published 2018)

T1: FcγRIIb (human, UniProt P31994 43-217)
T1 construct: extracellular domain; also called FcgRIIb; 2b
T1 sequence (looked up): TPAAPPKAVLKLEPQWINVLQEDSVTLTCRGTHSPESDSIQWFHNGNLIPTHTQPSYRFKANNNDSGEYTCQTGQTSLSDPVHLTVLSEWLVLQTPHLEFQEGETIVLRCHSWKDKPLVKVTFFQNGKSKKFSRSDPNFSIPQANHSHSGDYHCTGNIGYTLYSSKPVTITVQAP

B1: GpH7-A5/GpH7-B3 variant (L234_04F)/GpL16-k0 (antibody, human IgG1, kappa)
heavy 1: not shown
heavy 2: not shown
light: DIVMTQSPLSLPVTPGEPASISCQASESLVHSNRNTYLHWYLQKPGQSPQLLIYKVSNRFSGVPDRFSGSGSGTDFTLKISRVEAEDVGVYYCSQNTHVPPTFGQGTKVEIERTVAAPSVFIFPPSDEQLKSGTASVVCLLNNFYPREAKVQWKVDNALQSGNSQESVTEQDSKDSTYSLSSTLTLSKADYEKHKVYACEVTHQGLSSPVTKSFNRGEC
notes: IgG1 heterodimer, mutation in the GpH7-B3 chain only; also called He Ab
B2: GpH7-A5/GpH7-B3 variant (L234_05P)/GpL16-k0 (antibody, human IgG1, kappa)
heavy 1: not shown
heavy 2: not shown
light: B1 light
notes: as for B1
B3: GpH7-A5/GpH7-B3 variant (L234_06M)/GpL16-k0 (antibody, human IgG1, kappa)
heavy 1: not shown
heavy 2: not shown
light: B1 light
notes: as for B1
B4: GpH7-A5/GpH7-B3 variant (L234_07I)/GpL16-k0 (antibody, human IgG1, kappa)
heavy 1: not shown
heavy 2: not shown
light: B1 light
notes: as for B1
B5: GpH7-A5/GpH7-B3 variant (L234_11K)/GpL16-k0 (antibody, human IgG1, kappa)
heavy 1: not shown
heavy 2: not shown
light: B1 light
notes: as for B1
B6: GpH7-A5/GpH7-B3 variant (L234_12R)/GpL16-k0 (antibody, human IgG1, kappa)
heavy 1: not shown
heavy 2: not shown
light: B1 light
notes: as for B1
B7: GpH7-A5/GpH7-B3 variant (L234_13S)/GpL16-k0 (antibody, human IgG1, kappa)
heavy 1: not shown
heavy 2: not shown
light: B1 light
notes: as for B1
B8: GpH7-A5/GpH7-B3 variant (L234_14T)/GpL16-k0 (antibody, human IgG1, kappa)
heavy 1: not shown
heavy 2: not shown
light: B1 light
notes: as for B1
B9: GpH7-A5/GpH7-B3 variant (L234_15Y)/GpL16-k0 (antibody, human IgG1, kappa)
heavy 1: not shown
heavy 2: not shown
light: B1 light
notes: IgG1 heterodimer, L234Y in the GpH7-B3 chain only; also called GpH7-A5/GpH7-B3-01-15Y/GpL16-k0; He Ab
B10: GpH7-A5/GpH7-B3 variant (L234_16H)/GpL16-k0 (antibody, human IgG1, kappa)
heavy 1: not shown
heavy 2: not shown
light: B1 light
notes: as for B1
B11: GpH7-A5/GpH7-B3 variant (L234_19Q)/GpL16-k0 (antibody, human IgG1, kappa)
heavy 1: not shown
heavy 2: not shown
light: B1 light
notes: as for B1
B12: GpH7-A5/GpH7-B3 variant (L235_01G)/GpL16-k0 (antibody, human IgG1, kappa)
heavy 1: not shown
heavy 2: not shown
light: B1 light
notes: as for B1
B13: GpH7-A5/GpH7-B3 variant (L235_02A)/GpL16-k0 (antibody, human IgG1, kappa)
heavy 1: not shown
heavy 2: not shown
light: B1 light
notes: as for B1
B14: GpH7-A5/GpH7-B3 variant (L235_03V)/GpL16-k0 (antibody, human IgG1, kappa)
heavy 1: not shown
heavy 2: not shown
light: B1 light
notes: as for B1
B15: GpH7-A5/GpH7-B3 variant (L235_05P)/GpL16-k0 (antibody, human IgG1, kappa)
heavy 1: not shown
heavy 2: not shown
light: B1 light
notes: as for B1
B16: GpH7-A5/GpH7-B3 variant (L235_06M)/GpL16-k0 (antibody, human IgG1, kappa)
heavy 1: not shown
heavy 2: not shown
light: B1 light
notes: as for B1
B17: GpH7-A5/GpH7-B3 variant (L235_11K)/GpL16-k0 (antibody, human IgG1, kappa)
heavy 1: not shown
heavy 2: not shown
light: B1 light
notes: as for B1
B18: GpH7-A5/GpH7-B3 variant (L235_13S)/GpL16-k0 (antibody, human IgG1, kappa)
heavy 1: not shown
heavy 2: not shown
light: B1 light
notes: as for B1
B19: GpH7-A5/GpH7-B3 variant (L235_14T)/GpL16-k0 (antibody, human IgG1, kappa)
heavy 1: not shown
heavy 2: not shown
light: B1 light
notes: as for B1
B20: GpH7-A5/GpH7-B3 variant (L235_18N)/GpL16-k0 (antibody, human IgG1, kappa)
heavy 1: not shown
heavy 2: not shown
light: B1 light
notes: as for B1
B21: GpH7-A5/GpH7-B3 variant (L235_19Q)/GpL16-k0 (antibody, human IgG1, kappa)
heavy 1: not shown
heavy 2: not shown
light: B1 light
notes: as for B1
B22: GpH7-A5/GpH7-B3 variant (P271_02A)/GpL16-k0 (antibody, human IgG1, kappa)
heavy 1: not shown
heavy 2: not shown
light: B1 light
notes: as for B1

biological target: T2, FcγRIa (human, UniProt P12314 16-292); experiment: SPR, captured antibody; relative to GpH7-A5/GpH7-B3/GpL16-k0
T2 construct: extracellular domain; also called FcgRI; 1a
T2 sequence (P12314 16-292): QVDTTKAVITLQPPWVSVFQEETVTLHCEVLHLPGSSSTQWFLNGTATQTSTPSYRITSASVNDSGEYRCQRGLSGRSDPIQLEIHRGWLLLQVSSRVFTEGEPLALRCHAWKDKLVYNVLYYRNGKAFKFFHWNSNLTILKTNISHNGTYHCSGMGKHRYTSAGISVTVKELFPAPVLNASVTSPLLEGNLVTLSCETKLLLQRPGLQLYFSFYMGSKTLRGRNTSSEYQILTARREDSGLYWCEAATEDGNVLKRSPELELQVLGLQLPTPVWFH

He/Con_1a | Binder
101 relative, HeCon Ab = 100 | B1
99.9 relative, HeCon Ab = 100 | B2
104 relative, HeCon Ab = 100 | B3
103 relative, HeCon Ab = 100 | B4
91.8 relative, HeCon Ab = 100 | B5
91.8 relative, HeCon Ab = 100 | B6
96.9 relative, HeCon Ab = 100 | B7
98.6 relative, HeCon Ab = 100 | B8
100 relative, HeCon Ab = 100 | B9
94 relative, HeCon Ab = 100 | B10
95.7 relative, HeCon Ab = 100 | B11
87.2 relative, HeCon Ab = 100 | B12
92.2 relative, HeCon Ab = 100 | B13
94.7 relative, HeCon Ab = 100 | B14
94.7 relative, HeCon Ab = 100 | B15
98 relative, HeCon Ab = 100 | B16
79.9 relative, HeCon Ab = 100 | B17
90.5 relative, HeCon Ab = 100 | B18
88.7 relative, HeCon Ab = 100 | B19
92.2 relative, HeCon Ab = 100 | B20
94 relative, HeCon Ab = 100 | B21
104 relative, HeCon Ab = 100 | B22

biological target: T1, FcγRIIb; experiment: as above

He/Con_2b | Binder
99.8 relative, HeCon Ab = 100 | B1
72.9 relative, HeCon Ab = 100 | B2
78.5 relative, HeCon Ab = 100 | B3
80.9 relative, HeCon Ab = 100 | B4
16.2 relative, HeCon Ab = 100 | B5
18.9 relative, HeCon Ab = 100 | B6
59.3 relative, HeCon Ab = 100 | B7
62.5 relative, HeCon Ab = 100 | B8
96.3 relative, HeCon Ab = 100 | B9
59.4 relative, HeCon Ab = 100 | B10
60.3 relative, HeCon Ab = 100 | B11
35.4 relative, HeCon Ab = 100 | B12
63 relative, HeCon Ab = 100 | B13
66.4 relative, HeCon Ab = 100 | B14
54.7 relative, HeCon Ab = 100 | B15
81 relative, HeCon Ab = 100 | B16
6.3 relative, HeCon Ab = 100 | B17
48.2 relative, HeCon Ab = 100 | B18
46.8 relative, HeCon Ab = 100 | B19
54.9 relative, HeCon Ab = 100 | B20
42.6 relative, HeCon Ab = 100 | B21
88 relative, HeCon Ab = 100 | B22
